# Results reported in patent US20250026836A1 (UCB, published 2025).
# Where a chain is given by its changes, count along the chain named.
# B1: 12389gL2gH1 hIgG4P (antibody)
# heavy: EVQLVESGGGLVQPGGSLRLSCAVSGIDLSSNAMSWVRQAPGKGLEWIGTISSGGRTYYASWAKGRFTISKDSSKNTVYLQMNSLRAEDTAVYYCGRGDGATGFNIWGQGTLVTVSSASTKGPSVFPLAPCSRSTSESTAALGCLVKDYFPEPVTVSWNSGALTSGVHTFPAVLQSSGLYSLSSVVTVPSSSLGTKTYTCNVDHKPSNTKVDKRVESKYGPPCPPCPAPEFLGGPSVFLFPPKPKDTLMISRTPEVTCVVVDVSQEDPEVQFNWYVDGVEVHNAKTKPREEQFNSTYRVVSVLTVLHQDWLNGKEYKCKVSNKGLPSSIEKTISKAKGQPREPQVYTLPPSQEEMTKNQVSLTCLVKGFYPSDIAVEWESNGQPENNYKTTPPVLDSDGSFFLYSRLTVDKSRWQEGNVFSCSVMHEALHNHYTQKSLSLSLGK
# light: AIVLTQSPSSLSASVGDRVTITCQASQSIYSYLSWYQQKPGKAPKLLIYKASTLASGVPSRFSGSGSGTDFTLTISSLQPEDFATYYCQNHWNVGGNGWPFGGGTKVEIKRTVAAPSVFIFPPSDEQLKSGTASVVCLLNNFYPREAKVQWKVDNALQSGNSQESVTEQDSKDSTYSLSSTLTLSKADYEKHKVYACEVTHQGLSSPVTKSFNRGEC
# B2: 12389gL2gH9 hIgG4P (antibody, V domains shown)
# VH: EVQLVESGGGLVQPGGSLRLSCAVSGIDLSSNAMSWVRQAPGKGLEWIGTISSGGRTYYASWAKGRFTISKDNSKNTVYLQMNSLRAEDTAVYYCGRGDGATGFNIWGQGTLVTVSS
# VL: AIVLTQSPSSLSASVGDRVTITCQASQSIYSYLSWYQQKPGKAPKLLIYKASTLASGVPSRFSGSGSGTDFTLTISSLQPEDFATYYCQNHWNVGGNGWPFGGGTKVEIKR
# B3: 12389gL2gH13 hIgG4P (antibody, V domains shown)
# VH: B2 VH with V24A
# VL: B2 VL
# B4: 12389gL3gH1 hIgG4P (antibody)
# heavy: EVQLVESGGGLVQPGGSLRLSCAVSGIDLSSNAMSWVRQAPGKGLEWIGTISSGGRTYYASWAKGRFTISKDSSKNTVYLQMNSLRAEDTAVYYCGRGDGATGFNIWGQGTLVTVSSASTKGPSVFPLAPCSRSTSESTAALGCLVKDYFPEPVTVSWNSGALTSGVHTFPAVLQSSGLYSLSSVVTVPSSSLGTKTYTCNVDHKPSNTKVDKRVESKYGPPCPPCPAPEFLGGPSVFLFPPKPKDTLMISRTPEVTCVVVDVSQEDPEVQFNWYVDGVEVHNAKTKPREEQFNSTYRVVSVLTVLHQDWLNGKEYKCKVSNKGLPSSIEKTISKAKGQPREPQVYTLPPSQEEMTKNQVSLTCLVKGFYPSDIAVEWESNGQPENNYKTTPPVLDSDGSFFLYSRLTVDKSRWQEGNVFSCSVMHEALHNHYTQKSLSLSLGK
# light: B1 light with V3Q
# B5: 12389gL2gH6 hIgG4P (antibody, V domains shown)
# VH: B2 VH with G49S, N73S
# VL: B2 VL
# B6: 12389gL3gH16 hIgG4P (antibody)
# heavy: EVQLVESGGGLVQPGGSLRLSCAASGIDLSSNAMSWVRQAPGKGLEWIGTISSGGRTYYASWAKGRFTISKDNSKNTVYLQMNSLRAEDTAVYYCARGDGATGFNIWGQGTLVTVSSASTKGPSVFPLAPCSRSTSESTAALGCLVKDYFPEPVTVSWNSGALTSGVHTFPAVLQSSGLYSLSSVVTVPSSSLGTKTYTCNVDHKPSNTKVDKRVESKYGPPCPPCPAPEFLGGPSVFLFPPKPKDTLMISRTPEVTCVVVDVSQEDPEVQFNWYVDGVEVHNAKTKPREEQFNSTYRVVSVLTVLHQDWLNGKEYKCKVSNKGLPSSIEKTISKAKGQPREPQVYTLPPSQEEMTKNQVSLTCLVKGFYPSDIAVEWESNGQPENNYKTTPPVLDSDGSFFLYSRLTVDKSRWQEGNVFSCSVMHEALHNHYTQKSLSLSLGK
# light: B1 light with V3Q
# B7: 12389gL1gH1 hIgG4P (antibody, V domains shown)
# VH: B2 VH with N73S
# VL: B2 VL with D70Q
# B8: 12389gL2gH5 hIgG4P (antibody, V domains shown)
# VH: B2 VH with I48V, N73S
# VL: B2 VL
# B9: 12389gL2gH12 hIgG4P (antibody, V domains shown)
# VH: B2 VH with N73S, G96A
# VL: B2 VL
# B10: 12389gL2gH16 hIgG4P (antibody)
# heavy: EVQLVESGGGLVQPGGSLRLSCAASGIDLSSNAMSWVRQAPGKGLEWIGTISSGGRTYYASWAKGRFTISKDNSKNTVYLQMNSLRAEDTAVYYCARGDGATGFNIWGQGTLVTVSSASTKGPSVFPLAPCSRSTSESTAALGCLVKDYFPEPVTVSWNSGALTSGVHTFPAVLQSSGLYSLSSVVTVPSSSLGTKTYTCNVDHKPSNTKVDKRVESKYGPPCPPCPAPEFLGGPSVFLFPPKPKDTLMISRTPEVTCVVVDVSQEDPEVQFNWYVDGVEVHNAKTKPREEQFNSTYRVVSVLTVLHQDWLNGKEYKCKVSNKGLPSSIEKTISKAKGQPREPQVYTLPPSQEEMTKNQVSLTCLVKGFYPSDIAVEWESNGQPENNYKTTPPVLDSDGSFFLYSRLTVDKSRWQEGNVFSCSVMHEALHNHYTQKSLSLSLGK
# light: B1 light
# notes: also called Graft 12389gL2gH16
# B11: 12389gL2gH14 hIgG4P (antibody, V domains shown)
# VH: B2 VH with V24A, N73S, G96A
# VL: B2 VL
# B12: 12389gL2gH15 hIgG4P (antibody, V domains shown)
# VH: B2 VH with G96A
# VL: B2 VL
# B13: 12389gL2gH4 hIgG4P (antibody, V domains shown)
# VH: B2 VH with V24A, N73S
# VL: B2 VL
# B14: 12389gL2gH11 hIgG4P (antibody, V domains shown)
# VH: B2 VH with N73S, V78L
# VL: B2 VL
# B15: 12389gL2gH8 hIgG4P (antibody, V domains shown)
# VH: B2 VH with K71R, N73S
# VL: B2 VL
# B16: 12389 (chimeric rabbit V regions/human Fc) expressed as hIgG4P (antibody, V domains shown)
# VH: QSVEESGGRLVTPGTPLTLTCTVSGIDLSSNAMSWVRQAPGEGLEWIGTISSGGRTYYASWAKGRFTISKTSTTVDLKIPSPTTEDTATYFCGRGDGATGFNIWGPGTLVTVSS
# VL: ALVMTQTPASVSEPVGGTVTIKCQASQSIYSYLSWYQQKPGQPPKLLIYKASTLASGVSSRFKGSGSGTQFTLTISDLECGDAATYYCQNHWNVGGNGWPFGGGTEVVVK
# B17: Rabbit Fab (VR12389) (Fab, V domains shown)
# VH: B16 VH
# VL: ALVMTQTPASVSEPVGGTVTIKCQASQSIYSYLSWYQQKPGQPPKLLIYKASTLASGVSSRFKGSGSGTQFTLTISDLECGDAATYYCQNHWNVGGNGWPFGGGTEVVVKR
# notes: Used for the crystal structure; also called VR12389 RbFab
# B18: 12389 (chimeric rabbit V regions/human Fc) expressed as hIgG1 (antibody, V domains shown)
# VH: B16 VH
# VL: B16 VL
# Target: T1, Human HLA-G ECD + B2m (soluble, AVItev10His tag) (human)
# T1 construct: also called soluble HLA-G
# Test: SPR, 25 C, hIgG4P captured via anti-human Fc, HLA-G ECD+B2m 50 nM as analyte;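 further: biacore T200 readout, 60 s association then 150 s dissociation, reference-cell background subtracted, kinetics fitted to a 1:1 binding model with local Rmax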
Kd [nM],koff [s⁻¹],kon [M⁻¹ s⁻¹],Binder
7.63,0.00708,928000,B1
7.09,0.00603,850000,B2
6.61,0.00632,956000,B3
8.25,0.00697,845000,B4
12.5,0.0104,839000,B5
6.72,–,–,B6
7.99,0.00678,848000,B7
12.4,0.0101,817000,B8
7.39,0.00624,844000,B9
6.06,–,–,B10
7.58,0.00664,875000,B11
6.33,0.00567,896000,B12
8.09,0.00718,888000,B13
10.7,0.00907,850000,B14
15.4,0.0121,787000,B15
9.69,0.0092,949000,B16

# Target: T2, PeptideB2mHLAG C42S mut (single-chain peptide-B2m-HLA-G ECD fusion, His tag removed) (human)
# T2 construct: Used for complexing and in the crystal structure; also called HLA-G fusion protein
# Test: complex formation and size exclusion chromatography before crystallisation
row,binding result,Binder
1,binds,B17

# Target: T1, Human HLA-G ECD + B2m (soluble, …)
# Test: SPR, 25 C, hIgG1 captured via anti-human Fc, HLA-G ECD+B2m 50 nM as analyte, first experiment
Kd [nM],koff [s⁻¹],kon [M⁻¹ s⁻¹],Binder
10.8,0.0091,841000,B18

# Target: T1, Human HLA-G ECD + B2m (soluble, …)
# Test: SPR, 25 C, hIgG1 captured via anti-human Fc, HLA-G ECD+B2m 50 nM as analyte, second experiment
Kd [nM],koff [s⁻¹],kon [M⁻¹ s⁻¹],Binder
11.7,0.00918,782000,B18
